T1: Mutual gliding-motility protein B (MglB) (Myxococcus xanthus), Q1DB03
T1 chain: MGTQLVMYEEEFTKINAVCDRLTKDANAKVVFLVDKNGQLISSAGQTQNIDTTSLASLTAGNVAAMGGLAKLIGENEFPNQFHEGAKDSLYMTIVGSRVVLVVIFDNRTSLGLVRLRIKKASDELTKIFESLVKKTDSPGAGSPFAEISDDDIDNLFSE


Columns and labels:
[1] = biological target: Mutual gliding motility protein C (MglC) (Myxococcus xanthus); assay: SAXS; SAXSpace line collimation, 20 °C; MglB 25, 15, 10 mg/ml; MglC 35, 15, 20 mg/ml; MglBC and MglB^ΔCTC complexes freshly eluted from SEC
[2] = biological target: Mutual gliding-motility protein B (MglB) (Myxococcus xanthus) (UniProt Q1DB03); assay: as above
[3] = biological target: Mutual gliding motility protein C (MglC) (Myxococcus xanthus); assay: SEC; analytical SEC, Superdex 200 Increase 10/300, 0.5 ml/min, A280; proteins alone or MglB:MglC mixed 1:1, 2:1 and 1:2; MglB mutants mixed with MglC 2:1
[4] = biological target: Mutual gliding-motility protein B (MglB) (Myxococcus xanthus) (UniProt Q1DB03); assay: as above
[5] = biological target: Mutual gliding-motility protein B (MglB) (Myxococcus xanthus) (UniProt Q1DB03); assay: ITC; 25 °C; 50 μM MglB in the cell titrated with 500 μM MglC; one set of sites model; triplicates
[6] = biological target: T1, Mutual gliding-motility protein B …; assay: SAXS; SAXSpace line collimation, 20 °C; MglB 25, 15, 10 mg/ml; MglC 35, 15, 20 mg/ml; MglBC and MglB^ΔCTC complexes freshly eluted from SEC; conditions: remark: other sources report otherwise
[7] = biological target: T1, Mutual gliding-motility protein B …; assay: SEC; analytical SEC, Superdex 200 Increase 10/300, 0.5 ml/min, A280; proteins alone or MglB:MglC mixed 1:1, 2:1 and 1:2; MglB mutants mixed with MglC 2:1; conditions: remark: other sources report otherwise

Row | stoichiometry N [1] | stoichiometry N (MglC per MglB) [2] | stoichiometry N [3] | stoichiometry N (MglC per MglB) [4] | Kd [5] | dH [5] | stoichiometry N [5] | stoichiometry N [6] | stoichiometry N [7] | Molecule
1 | 2 | 0.5 | 2 | 0.5 | 417 nM | 6.94 kcal/mol | 0.51 | – | – | Mutual gliding motility protein C (MglC) (natural protein)
2 | – | – | – | – | – | – | – | 2 | 2 | Mutual gliding-motility protein B (MglB), Q1DB03 1-159 (natural protein) MGTQLVMYEEEFTKINAVCDRLTKDANAKVVFLVDKNGQLISSAGQTQNIDTTSLASLTAGNVAAMGGLAKLIGENEFPNQFHEGAKDSLYMTIVGSRVVLVVIFDNRTSLGLVRLRIKKASDELTKIFESLVKKTDSPGAGSPFAEISDDDIDNLFSE
